Assay results reported in patent US20150037349A1 (TECHNOPHAGE INVESTIGA O E DESENVOLVIMENTO EM BIOTECNOLOGIA, published 2015).

B7: rat albumin (other)
chain: EAHKSEIAHRFKDLGEQHFKGLVLIAFSQYLQKCPYEEHIKLVQEVTDFAKTCVADENAENCDKSIHTLFGDKLCAIPKLRDNYGELADCCAKQEPERNECFLQHKDDNPNLPPFQRPEAEAMCTSFQENPTSFLGHYLHEVARRHPYFYAPELLYYAEKYNEVLTQCCTESDKAACLTPKLDAVKEKALVAAVRQRMKCSSMQRFGERAFKAWAVARMSQRFPNAEFAEITKLATDVTKINKECCHGDLLECADDRAELAKYMCENQATISSKLQACCDKPVLQKSQCLAEIEHDNIPADLPSIAADFVEDKEVCKNYAEAKDVFLGTFLYEYSRRHPDYSVSLLLRLAKKYEATLEKCCAEGDPPACYGTVLAEFQPLVEEPKNLVKTNCELYEKLGEYGFQNAVLVRYTQKAPQVSTPTLVEAARNLGRVGTKCCTLPEAQRLPCVEDYLSAILNRLCVLHEKTPVSEKVTKCCSGSLVERRPCFSALTVDETYVPKEFKAETFTFHSDICTLPDKEKQIKKQTALAELVKHKPKATEDQLKTVMGDFAQFVDKCCKAADKDNCFATEGPNLVARSKEALA
notes: also called rat serum albumin; albumin from rat sera
B10: rat TNF-alpha (ligand)
chain: LRSSSQNSSDKPVAHVVANHQAEEQLEWLSQRANALLANGMDLKDNQLVVPADGLYLIYSQVLFKGQGCPDYVLLTHTVSRFAISYQEKVSLLSAIKSPCPKDTPEGAELKPWYEPMYLGGVFQLEKGDLLSAEVNLPKYLDITESGQVYFGVIAL

How the values were obtained:
BSA = biological target: T1, BSA (bovine, UniProt P02769); test: ELISA, BSA as negative-control antigen, anti-HA-HRP, OD 405 nm
T1 construct: coated as negative-control antigen; Negative control antigen of the ELISAs; also called bovine serum albumin
T1 sequence (P02769 25-607 limits assumed): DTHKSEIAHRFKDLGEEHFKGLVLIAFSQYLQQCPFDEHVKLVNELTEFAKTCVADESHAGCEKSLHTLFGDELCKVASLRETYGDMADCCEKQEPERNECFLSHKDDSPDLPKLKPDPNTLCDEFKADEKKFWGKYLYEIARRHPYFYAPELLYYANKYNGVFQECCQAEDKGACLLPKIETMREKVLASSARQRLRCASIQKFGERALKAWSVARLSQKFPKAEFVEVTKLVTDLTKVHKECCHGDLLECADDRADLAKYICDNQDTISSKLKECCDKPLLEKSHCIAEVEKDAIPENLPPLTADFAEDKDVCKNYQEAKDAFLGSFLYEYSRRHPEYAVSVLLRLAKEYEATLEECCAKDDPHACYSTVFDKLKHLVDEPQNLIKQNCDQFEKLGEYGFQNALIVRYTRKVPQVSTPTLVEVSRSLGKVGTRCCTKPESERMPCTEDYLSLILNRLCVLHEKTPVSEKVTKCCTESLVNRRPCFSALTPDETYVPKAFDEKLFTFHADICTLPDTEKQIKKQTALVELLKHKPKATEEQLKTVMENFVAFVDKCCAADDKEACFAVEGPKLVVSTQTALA
Procedure: (§1) Relative binding activities of VL monomers and constructed dimers were measured for human and rat TNF-alpha, while BSA was used as a negative control. Briefly, a 384-well ELISA plate was coated with 80 ng of human or rat TNF-alpha and incubated overnight at 4° C. Wells were blocked for one hour at 37° C. with 3% BSA in PBS. Antibody fragments were added to the wells and incubated for 1 h at room temperature. After washing the wells with PBS, anti-HA-HRP mAb (Roche) was used for detection.

rat TNF-alpha [1] = biological target: B10; test: ELISA, rat TNF-alpha coated (80 ng/well), anti-HA-HRP, OD 405 nm, one unstated fragment concentration
Procedure: as §1

human TNF-alpha [2] = biological target: T2, human TNF-alpha (human, UniProt P01375 77-233); test: ELISA, human TNF-alpha coated (80 ng/well), anti-HA-HRP, OD 405 nm, one unstated fragment concentration
T2 construct: Immobilised on a CM5 chip or coated on ELISA plates
T2 sequence (P01375 77-233 limits assumed): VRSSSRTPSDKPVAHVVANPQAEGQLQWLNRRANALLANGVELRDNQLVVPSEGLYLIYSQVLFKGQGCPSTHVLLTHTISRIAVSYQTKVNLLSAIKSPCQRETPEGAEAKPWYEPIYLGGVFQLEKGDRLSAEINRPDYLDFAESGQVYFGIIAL
Procedure: as §1

human TNF-alpha [3] = biological target: T2, human TNF-alpha; test: Biacore (SPR)
human albumin = biological target: T3, human albumin (human, UniProt P02768 25-609); test: Biacore (SPR)
T3 construct: also called human serum albumin; albumin from human sera
T3 sequence (P02768 25-609 limits assumed): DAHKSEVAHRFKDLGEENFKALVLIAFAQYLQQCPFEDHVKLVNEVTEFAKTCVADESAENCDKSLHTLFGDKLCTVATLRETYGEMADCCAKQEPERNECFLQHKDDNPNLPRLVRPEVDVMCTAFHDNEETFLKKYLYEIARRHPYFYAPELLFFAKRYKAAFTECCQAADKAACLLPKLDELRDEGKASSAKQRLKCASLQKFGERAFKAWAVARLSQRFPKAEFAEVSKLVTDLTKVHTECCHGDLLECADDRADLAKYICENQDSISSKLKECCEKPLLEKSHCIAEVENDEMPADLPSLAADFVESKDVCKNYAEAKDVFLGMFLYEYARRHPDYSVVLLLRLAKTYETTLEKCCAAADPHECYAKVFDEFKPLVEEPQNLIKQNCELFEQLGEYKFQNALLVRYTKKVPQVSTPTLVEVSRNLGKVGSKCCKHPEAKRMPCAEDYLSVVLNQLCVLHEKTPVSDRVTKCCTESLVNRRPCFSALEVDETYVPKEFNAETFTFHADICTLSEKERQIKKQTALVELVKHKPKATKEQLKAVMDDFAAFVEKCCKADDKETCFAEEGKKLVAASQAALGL

rat albumin = biological target: B7; test: Biacore (SPR)
mouse albumin = biological target: T4, mouse albumin (mouse, UniProt P07724 25-608); test: antigen cross-reactivity, as described in the Examples above
T4 construct: also called mouse serum albumin; albumin from mouse sera

rat TNF-alpha [4] = biological target: B10; test: as above
VL18-3L-VL11 PEP DI #7 [5] = biological target: T5, VL18-3L-VL11 PEP DI #7; test: Biacore (SPR)
T5 construct: also called Variant #7

VL18-3L-VL11 PEP DI #7 [6] = biological target: T5, VL18-3L-VL11 PEP DI #7; test: antigen cross-reactivity, as described in the Examples above

B1: VL18-VL18 3L (other)
single chain VL-VL dimer: ELVLTQTPASVEAAVGGTVTIKCQASQSISSYLAWYQQKPGHPPKLLIYKASTLASGVSSRFKGSGSGTEFTLTISDLECADAATYYCQSTYLGGTYVGGAFGGGTELEILSGGGGSGGGGSGGGGSSGELVLTQTPASVEAAVGGTVTIKCQASQSISSYLAWYQQKPGHPPKLLIYKASTLASGVSSRFKGSGSGTEFTLTISDLECADAATYYCQSTYLGGTYVGGAFGGGTELEIL
notes: Hexahistidine tail and HA tag; also called VL18-3L-VL18; VL18-18 #3L
BSA
  binding result: no binding
Rat TNF-alpha [1]
  binding result: binds
Human TNF-alpha [2]
  binding result: binds

B2: VL18-3L-VL11 DI3-PEP DI #8 (other)
chain: ELVLTQQPASVEAAPGGTVTIKCQASQSISSYLAWYQQKPGHPPKLLIYKVSTRASGVSSRFSGSGSGTEFTLTISDLKSADAATYYCQSTYLGGTYVGGAFGGGTELEIKSGGGGSGGGGSGGGGSSGELVMTQQPASVEAAPGGTVTIKCQASQSISSYLAWYQQKPGQPPKLLIYRVSTRASGVSSRFSGSGSGTEFTLTISDLKSADAATYYCQSTYVNRGSVAAFGGGTKVVVKSGGGGSGGGGSGGGGSSGDITGAALLEAKDAAINELKQYGISDYYVHLINKADTVEGVNALKDEILSALPYPYDVPDYA
notes: De-immunized dimer DI #3 fused to de-immunized PEP; also called Variant 8
Human TNF-alpha [3]
  Kd: 0.6 nM
Human albumin
  Kd: 88.5 nM
Rat albumin
  Kd: 22.4 nM

B3: VL18-3L-VL11 DI5-PEP DI #9 (other)
chain: ELVLTQQPASVEAAPGGTVTIKCQASQSISSYLAWYQQKPGHPPKLLIYKASTLASGVSSRFSGSGSGTEFTLTISDLKSADAATYYCQSTYLGGTYVGGAFGGGTELEIKSGGGGSGGGGSGGGGSSGELVMTQQPASVEAAPGGTVTIKCQASQSISSYLAWYQQKPGQPPKLLIYRASTLASGVSSRFSGSGSGTEFTLTISDLKSADAATYYCQSTYVNRGSVAAFGGGTKVVVKSGGGGSGGGGSGGGGSSGDITGAALLEAKDAAINELKQYGISDYYVHLINKADTVEGVNALKDEILSALPYPYDVPDYA
notes: De-immunized dimer DI #5 fused to de-immunized PEP; also called Variant 9
Human TNF-alpha [3]
  Kd: 0.4 nM
Human albumin
  Kd: 92 nM
Rat albumin
  Kd: 32 nM
Mouse albumin
  binding result: binds
Rat TNF-alpha [4]
  binding result: binds

B4: VL18-3L-VL11 DI #3 (other)
chain: ELVLTQQPASVEAAPGGTVTIKCQASQSISSYLAWYQQKPGHPPKLLIYKVSTRASGVSSRFSGSGSGTEFTLTISDLKSADAATYYCQSTYLGGTYVGGAFGGGTELEIKSGGGGSGGGGSGGGGSSGELVMTQQPASVEAAPGGTVTIKCQASQSISSYLAWYQQKPGQPPKLLIYRVSTRASGVSSRFSGSGSGTEFTLTISDLKSADAATYYCQSTYVNRGSVAAFGGGTKVVVKYPYDVPDYA
notes: also called Variant 3
Human TNF-alpha [3]
  Kd: 0.7 nM
Rat TNF-alpha [4]
  binding result: binds

B5: VL18-3L-VL11 DI #1 (other)
chain: ELVLTQQPASVEAAPGGTVTIKCQASQSISSYLAWYQQKPGHPPKLLIYKVSTRASGVSSRFSGSGSGTEFTLTISDLKSADAATYYCQSAYLGGTYVGGAFGGGTELEIKSGGGGSGGGGSGGGGSSGELVMTQQPASVEAAPGGTVTIKCQASQSISSYLAWYQQKPGQPPKLLIYRVSTRASGVSSRFSGSGSGTEFTLTISDLKSADAATYYCQSAYVNRGSVASFGGGTKVVVKYPYDVPDYA
notes: Cloned in pET28a; also called Variant 1
Rat TNF-alpha [4]
  binding result: binds

B6: VL18-3L-VL11 DI #5 (other)
chain: ELVLTQQPASVEAAPGGTVTIKCQASQSISSYLAWYQQKPGHPPKLLIYKASTLASGVSSRFSGSGSGTEFTLTISDLKSADAATYYCQSTYLGGTYVGGAFGGGTELEIKSGGGGSGGGGSGGGGSSGELVMTQQPASVEAAPGGTVTIKCQASQSISSYLAWYQQKPGQPPKLLIYRASTLASGVSSRFSGSGSGTEFTLTISDLKSADAATYYCQSTYVNRGSVAAFGGGTKVVVKYPYDVPDYA
notes: also called Variant 5
Human TNF-alpha [3]
  Kd: 0.8 nM
Rat TNF-alpha [4]
  binding result: binds

## B7
VL18-3L-VL11 PEP DI #7 [5]
  Kd: 28.1 nM

B8: VL11-VL11 3L (other)
single chain VL-VL dimer: ELVMTQTPASVEAAVGGTVTIKCQASQSISRYLAWYQQKPGQPPKLLIYRASTLASGVSSRFKGSGSGTEFTLTISDLECADAATYYCQSTYVNRGSVAAFGGGTEVVVKSGGGGSGGGGSGGGGSSGELVMTQTPASVEAAVGGTVTIKCQASQSISRYLAWYQQKPGQPPKLLIYRASTLASGVSSRFKGSGSGTEFTLTISDLECADAATYYCQSTYVNRGSVAAFGGGTEVVVK
notes: Hexahistidine tail and HA tag; also called VL11-3L-VL11; VL11-11 #3L
BSA
  binding result: no binding
Rat TNF-alpha [1]
  binding result: binds
Human TNF-alpha [2]
  binding result: binds

B9: VL11-VL18 3L (other)
single chain VL-VL dimer: ELVMTQTPASVEAAVGGTVTIKCQASQSISRYLAWYQQKPGQPPKLLIYRASTLASGVSSRFKGSGSGTEFTLTISDLECADAATYYCQSTYVNRGSVAAFGGGTEVVVKSGGGGSGGGGSGGGGSSGELVLTQTPASVEAAVGGTVTIKCQASQSISSYLAWYQQKPGHPPKLLIYKASTLASGVSSRFKGSGSGTEFTLTISDLECADAATYYCQSTYLGGTYVGGAFGGGTELEIL
notes: Hexahistidine tail and HA tag; also called VL11-3L-VL18; VL11-18 #3L
BSA
  binding result: no binding
Rat TNF-alpha [1]
  binding result: binds
Human TNF-alpha [2]
  binding result: binds

## B10
VL18-3L-VL11 PEP DI #7 [6]
  binding result: binds
